The target in one series is T1, Opti-Pgp (Mus musculus, UniProt P21447, N83Q/N87Q/N90Q).
T1 construct: made in house; host or cells: Pichia pastoris KM71H
As to the kind of experiment: ATPase assay of purified, lipid-activated Pgp (coupled ATP-regenerating assay). The series is classed as biochemical. The procedure: (§1) Purified Pgp in 0.1% DDM was mixed with 10 mM DTT on ice for 5 min, then activated with 1% E. coli polar lipids for 15 minutes at room temperature followed by 30 s bath sonication as described. ATPase activity was measured at 37° C. in a coupled assay utilizing an ATP-regenerating system. For each well of a 96-well plate, 10 μl (5 μg) of activated wild type (WT) Pgp or Opti-Pgp was added to 200 μl of assay medium containing 10 mM ATP, 12 mM MgSO4, 3 mM phosphoenolpyruvate, 0.3 mM NADH, 0.5 mg/ml of lactate dehydrogenase, 0.5 mg/ml of pyruvate kinase, 0.1 mM EGTA and 40 mM Tris-HCl, pH 7.4. Verapamil was added from stock solution in water; cyclosporine A was added from concentrated stock in DMSO such that the final DMSO concentration was 2%; control samples contained 2% DMSO. […] ATPase activity was calculated as described previously and plotted with SigmaPlot 10 (Systat Software, Inc.).

In series [1] the test system is S. cerevisiae strain JPY201. Description: Mating assay (a-factor export, diploid formation). It counts as cell-based. To be noted: sterile ste6Δ strain JPY201, tester DC17. The procedure:
(§2) FK506 resistance and mating assays were as previously described with the following modifications. To measure FK506-resistant growth, overnight cultures were grown in uracil-deficient medium, diluted to an (OD600 of 0.05, seeded into sterile 96 well plates in triplicate and grown in YPD medium at 30° C. in the absence or presence of FK506, valinomycin [12, 33], or doxorubicin. OD600 was measured at 2 hour intervals for 30 hours in a microplate reader (Benchmark Plus, BioRad) after vigorous mixing. Drugs were dissolved in dimethylsulfoxide and diluted into the plate medium such that the final concentration of solvent was ≦1%. For mating assays, mass populations were diluted to OD600 of 0.6, and 0.75 ml were spotted with 0.25 ml of α-type tester strain DC17 (OD600 of 1.2) onto a 22 mm 0.45 μm HA filter (Millipore, cat no SAIJ791H5), placed on a YPD plate and incubated for 4 hours, then plated in duplicate on minimal and uracil-deficient medium as described. Mating frequency was calculated as the ratio of transformed cells forming diploid colonies on selective medium to the total number of cells introduced in the assay. Statistical analysis of the functional assays was done with the SigmaPlot 11 software using One Way ANOV A with the pairwise multiple comparison Tukey test.

The nature of series [2]: Differential scanning calorimetry, thermal unfolding. It counts as physicochemical. As to the method:
Calorimetry was routinely carried out in 20 mM HEPES, pH 7.6, 50 mM NaCl, 10% glycerol, 0.1% DDM and 5.5 mM DTT in 0.13 mL cells at a heating rate of 2 K/minutes with the VP-Capillary DSC System (MicroCal Inc., GE Healthcare). An external pressure of 2.0 atm was maintained to prevent possible degassing of the solutions on heating. Thermal unfolding was irreversible, as determined by sample cooling and reheating. Heat capacity curves were corrected for instrumental baseline obtained by buffer scans. Separated DSC scans were conducted for buffer containing 1% lipids and no transition was detected in the temperature range of thermal unfolding for the proteins in presence of lipids. DSC data were analyzed with the MicroCal Origin software to obtain the unfolding temperature (Tm) and the total unfolding enthalpy (ΔHcal).
(In general: Differential scanning calorimetry records heat flow against a reference as temperature is scanned.)

The test system of series [3] is S. cerevisiae strain JPY201. Description: Drug-resistant growth of Pgp transformants (FK506, valinomycin, doxorubicin). It counts as cell-based. The procedure: as §2
The target in a further series is T2, WT-Pgp (Mus musculus, UniProt P21447, N83Q/N87Q/N90Q).
T2 construct: Arrows indicate the position of the full-length proteins (Pgp); made in house; host or cells: Pichia pastoris KM71H
Description: ATPase assay of purified, lipid-activated Pgp (coupled ATP-regenerating assay). The following applies: 150 μM verapamil, 1% E. coli lipids, 37° C., n > 30. The series is classed as biochemical. As to the method:
as §1

The target in series [4] is wild-type P-glycoprotein (mouse MDR3 gene product) with C-terminal His6-tag (mouse) (UniProt P21447). Description: cell-based or functional assay.
The target of series [5] is gene-optimized P-glycoprotein (mouse opti-MDR3 gene product) with C-terminal His6-tag (mouse) (UniProt P21447). As to the kind of experiment: cell-based or functional assay.

T1 sequence (P21447 whole entry N83Q/N87Q/N90Q): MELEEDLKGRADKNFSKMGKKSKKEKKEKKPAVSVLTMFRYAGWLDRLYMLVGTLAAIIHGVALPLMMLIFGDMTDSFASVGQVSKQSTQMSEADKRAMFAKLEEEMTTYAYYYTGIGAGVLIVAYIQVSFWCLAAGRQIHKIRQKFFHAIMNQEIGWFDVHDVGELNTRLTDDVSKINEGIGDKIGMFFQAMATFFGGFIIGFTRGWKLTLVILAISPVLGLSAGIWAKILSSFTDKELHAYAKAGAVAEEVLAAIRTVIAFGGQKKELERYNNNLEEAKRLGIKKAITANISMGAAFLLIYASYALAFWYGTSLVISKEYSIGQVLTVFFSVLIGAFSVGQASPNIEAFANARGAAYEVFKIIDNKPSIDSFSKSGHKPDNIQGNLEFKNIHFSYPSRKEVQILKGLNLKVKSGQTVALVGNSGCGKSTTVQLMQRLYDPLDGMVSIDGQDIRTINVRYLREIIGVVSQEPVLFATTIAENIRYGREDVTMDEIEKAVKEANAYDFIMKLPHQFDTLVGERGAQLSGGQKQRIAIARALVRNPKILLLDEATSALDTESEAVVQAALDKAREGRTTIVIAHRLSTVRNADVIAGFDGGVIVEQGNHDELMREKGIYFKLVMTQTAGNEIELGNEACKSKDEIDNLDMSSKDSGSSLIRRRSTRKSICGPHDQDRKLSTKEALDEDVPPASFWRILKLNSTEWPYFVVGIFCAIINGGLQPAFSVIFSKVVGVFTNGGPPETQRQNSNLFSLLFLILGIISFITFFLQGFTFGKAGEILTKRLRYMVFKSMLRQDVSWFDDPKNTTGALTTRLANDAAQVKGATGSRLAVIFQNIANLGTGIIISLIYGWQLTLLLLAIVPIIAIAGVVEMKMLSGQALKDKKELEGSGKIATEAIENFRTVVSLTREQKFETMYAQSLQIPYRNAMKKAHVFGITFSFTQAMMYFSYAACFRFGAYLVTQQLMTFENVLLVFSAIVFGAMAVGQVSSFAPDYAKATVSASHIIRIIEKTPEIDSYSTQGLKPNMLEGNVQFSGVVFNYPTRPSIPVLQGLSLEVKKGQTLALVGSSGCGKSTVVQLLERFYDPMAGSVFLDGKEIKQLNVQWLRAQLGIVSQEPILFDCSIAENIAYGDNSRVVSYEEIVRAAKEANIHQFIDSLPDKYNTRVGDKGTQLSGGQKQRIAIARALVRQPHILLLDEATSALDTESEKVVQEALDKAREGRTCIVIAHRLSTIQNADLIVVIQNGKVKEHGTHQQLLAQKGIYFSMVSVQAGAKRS
T2 sequence (P21447 whole entry N83Q/N87Q/N90Q): as above

On to “Opti-Pgp: P-glycoprotein (mouse MDR3) expressed from codon-optimized opti-MDR3 gene, primary sequence identical to wild-type, C-terminal His6 tag”, for which the “verapamil-stimulated ATPase activity” value with Opti-Pgp (0.13% lipid) stood at 40%; with Opti-Pgp (0.52% lipid), 80%; in the series with Opti-Pgp (absence of lipids), 11%. In addition, the “ATP hydrolysis rate enhancement over wild-type Pgp” value with Opti-Pgp (Opti-Pgp versus WT-Pgp) stood at 1.2 fold. Further, the “Maximal ATPase activity” value with Opti-Pgp (purified Opti-Pgp, 150 μM verapamil, 1% E. coli lipids, 37° C., n > 30) came to 2.1 ± 0.28 µmol/min/mg. This substance registered a Maximum turnover number with Opti-Pgp (purified Opti-Pgp, as printed in summary) of 2.1 ± 0.28 µmol/min/mg. Moreover, in series [1], the “Mating frequency relative to WT-Pgp controls” value is on record as “about 1.5 fold”. For the same substance, in series [2] (0.13% lipid), the “Tm (intermediate)” value was determined as 48 °C. Besides, the “Unfolding temperature T1” value is 49.3 ± 1.0 °C in series [2] (1% lipid) and 42.7 ± 1.7 °C in series [2] (no added lipids, 0.1% DDM). In addition, in series [2] (1% lipid), the “Unfolding temperature T2” value turned out to be 58.7 ± 0.5 °C. Further, the ΔHcal is listed as 567 ± 33 kcal/mol in series [2] (1% lipid) and 264 ± 67 kcal/mol in series [2] (no added lipids, 0.1% DDM). Moreover, the “Growth resistance compared with WT-Pgp transformants” value in series [3] (FK506 25 μg/ml) was “no difference”; in series [3] (FK506 50 or 75 μg/ml), “grew significantly faster”; in series [3] (doxorubicin 45 μM) it was “grew significantly faster”; in series [3] (doxorubicin 15 and 30 μM), “no significant difference”. For the same substance, in series [3] (in the presence of FK506), the “Time after inoculation to enter log-phase growth” value is “approximately 22 hours”. The “Time to reach stationary phase” value in series [3] (in the presence of FK506) is reported as “approximately 28 hours”. The “Growth compared with WT-Pgp transformants” value in series [3] (valinomycin 80 μg/ml, data not shown) was “as good as or better than”.

Regarding “WT-Pgp: wild-type mouse MDR3 P-glycoprotein expressed from the native gene, comparison protein”, the “Maximal ATPase activity” value with WT-Pgp stood at 1.8 ± 0.24 µmol/min/mg. For the same substance, in series [2] (1% lipid), the “Unfolding temperature T1” value is 50.4 ± 0.9 °C, the “Unfolding temperature T2” value is 57.8 ± 0.1 °C and the ΔHcal is 518 ± 4.2 kcal/mol. In series [2] (no added lipids, 0.1% DDM), the “Unfolding temperature T1” value was 43.0 ± 1.6 °C and the ΔHcal stood at 264 ± 87 kcal/mol.

Regarding cyclosporine A (peptide), the Half-maximal inhibition by cyclosporine A (µM) of verapamil-stimulated ATPase activity in series [4] came out at 0.98 µM; in series [5], 1.1 µM.

The values above are taken from patent publication US20130011909A1, “METHODS AND COMPOSITION TO ENHANCE PRODUCTION OF FULLY FUNCTIONAL P-GLYCOPROTEIN IN PICHIA PASTORIS” (TEXAS TECH UNIVERSITY SYSTEM, priority 2011, published 2013).
